The DeepSol protein solubility set

Assay: soluble on expression in E. coli; label from the status in PepcDB or PDB records
With “MDYTIENNMIKVVISDHGAEIQSVKSAHTDEEFMWQANPEIWGRHAPVLFPIVGRLKNDEYTYKGKTYHLGQHGFARNADFEVENHTKESITFLLKDNEETRKVYPFKFEFRVNYNLMNNLLEENFSVVNKSDETMIFGVGGHPGFNLPTDHGENKEDFYFDMHPSVTRVRIPLKDASLDWNNRSLAPTDSLIALSDDLFKDDALIYELRGNDNKVSLRTDKNKFHVNVWTRDAPFVGIWSQYPKTDNYVCIEPWWGIADRDDADGDLEHKYGMNHLKPGKEFQAGFSMTYHSTTDEVKLEHHHHHH” the “soluble on expression in E. coli” value was “soluble”.
In the case of “IDKITYPTRIGAVVFPHKKHQDALGECRGCHEKGPGRIDGFDKVMAHGKGCKGCHEEMKIGPVRCGDCHKGGSTH”, the “soluble on expression in E. coli” value is reported as “soluble”.
With “MSLSSANGGHVDQSDHLALLPPNVRKKGRPTLVLDLDATLFYTSAELLNTPLDYFDMGEESTYRYLYLRPYALDFLGWASTVFEVIIWTAAMESYAEPRIRATEIDRYADVVLYRGACDMIDGSLVKNLAKLGRPLSDMIIVDDNPVSYALNVELAYPIPPFSGEEDDLELLRLVPILRKVLELSSLKRGIYKTIFSEGHHHHHH” the “soluble on expression in E. coli” value was “soluble”.
In the case of “VKSYKSGASAIDVIVTTPDIARINAIAAMKKGSALTTEETMQVPAAGWPVMIFSHGITSYKETVLAISGTLASQGIATISIDHPYHGARGIDFNADGVYEISATSSLSDSDPAYVNANVTSYMNLASLLTARDNVRQSEVDLLALRLSLNSVNLAGQLDATKVSFLGHSLGAITGIPVMALANSGI”, the “soluble on expression in E. coli” value is reported as “not soluble”.
With “MGSDKIHHHHHHMIQITPFLDSKRKTPLYVQLYQYIKEGIESGQLKSDTFLPSIRELALHLRVSKNTVEGAYQQLIAEGYVESIPRVGLKILELEATFLCDKGGKQLQNVTMGEIQREHKSIEFDFVYGEIDTAHLPLKVWKRHVQEVLKGASEELLMYGDPFGDWHLRQELSHYLLQSRGVSCRPEQVVITAGTQHAVSLLCQLLSLHGSTVAFEDPGYNGVRSVFINQGCRIAPIPIEADGLSLSRLHESHANIVYVTPSHQLPCGMILPVHKRSLLLEWAYEHEGYIVEDDYDSEFRYQGQPIPALKALDQNEKVIYLGTFSKSFLPSIRVSYMVLPGELVPLYQQKLANYNQAASQLIQRALYTFIKDGDFQRHIRRMKKVYQSKHHTLLKSVKTYLGDRVTVIGEKSGLHVLLNVPGREDHELIEKAMACGVKVYSTKTFWYNPKNQCSSFIMLGFGKLSEEAIKKGIRRLQQAWF” the “soluble on expression in E. coli” value was “not soluble”.
With “SMPVRRVRVVKQEAGGLGISIKGGRENRMPILISKIFPGLAADQSRALRLGDAILSVNGTDLRQATHDQAVQALKRAGKEVLLEVKFIREVNTVV” the “soluble on expression in E. coli” value was “soluble”.
For “MYNVEIRRPNSDDLEELHSFFRIVITNTFKDEGLSQLSDDIENEINTKKQYLKNDFDSNGEKRYFLLAIDTNNDKIIGTIEVGPASTLINSCTGGVLKDLYEIGTVFILPEYQKKGIGSFLLHTMFLTLLSRGITEYCLDSGYKKAQSIWTKKFGEPSYVLKDYWGESSDHMIWKKSLYDTPIIFELMAGDPLEHHHHHH”, the “soluble on expression in E. coli” value was “soluble”.
With “MSLELKPKRFLVLDDQLVLRKLISRQASFFTRFAVEIDEFSDPAEALRSIAEGGYHLVITDIGMPGMNGIDFIKNVARLGYQSALLIISGYDGKTLQTIADMSVNLGLSCTRFLSKPYSAEAFVAALNGIFSEMERSEAPAVGDVAQLLADLGGETFRMQFAPVRSLHGRRLAGFTLRTLQLPDGRRLAFDRLLALLAGRRMASAALLEIVVERTARLLQDMRLSAGIDDCRVNIRIDEACLSADNVFDRCFMALQQSEVSPACLGFALADGLNRRSDALCFENIAKVKYLGFRLLADGFGQGSLTVSNLFRLPFDQVNAPLEALQWMKILQGEDPGAFRLLRSFGLGQAPVCATGLDDEESLALAQALGCGLGEGDAVSLAVPEEELLQEMAAVPEGEGHHHHHH” the “soluble on expression in E. coli” value was “soluble”.
For “MSHHHHHHAGIFTFEEPVTHVSESIGIMEVKVLRTSGARGNVIVPYKTIEGTARGGGEDFEDTCGELEFQNDEIVKTISVKVIDDEEYEKNKTFFLEIGEPRLVEMSEKKGGFTITEEYDDKQPLTSKEEEERRIAEMGRPILGEHTKLEVIIEESYEFKSTVD”, the “soluble on expression in E. coli” value was “soluble”.
In the case of “YPPSMDWRKKGNFVSPVKNQGSCGSCWTFSTTGALESAVAIATGKMLSLAEQQLVDCAQNFNNHGCQGGLPSQAFEYIRYNKGIMGEDTYPYKGQDDHCKFQPDKAIAFVKDVANITMNDEEAMVEAVALYNPVSFAFEVTNDFLMYRKGIYSSTSCHKTPDKVNHAVLAVGYGEENGIPYWIVKNSWGPQWGMNGYFLIERGKNMCGLAACASYPIPLV”, the “soluble on expression in E. coli” value is reported as “soluble”.
With “MHHHHHHSSGVDLGTENLYFQSNAMLDPLDILTNIDDVLPYYQAIFSAEEQKVVGYEVLGRILADSEIQSLGPFFLDAGIPEEYKLEVDNRIIRQALDRFLEADSDLLIFMNQDANLLMLDHGESFLELLKEYEAKGIELHRFVLEITEHNFEGDIEQLYHMLAYYRTYGIKIAVDNIGKESSNLDRIALLSPDLLKIDLQALKVSQPSPSYEHVLYSISLLARKIGAALLYEDIEANFQLQYAWRNGGRYFQGYYLVSPSETFLERDVLKQRLKTEFHQFITHEKKKLETVYEHSEQFYKRVHQAVTSLRKNNLSSDDDFIKKLAEELTDCSFRIYMCDEEGDQLTGNVFKQDGEWIYQPEYAEKNWSWRPYFLENIMRMRNLRKGFFSDLYSDLETGEMIRTFSYPMDDQMYLFIDLPYSYLYEQDGLI” the “soluble on expression in E. coli” value was “soluble”.
With “MTKSQIMDLSNFYQDTDYPSGRLIALLILSLGLTPAEIANLKKADFDTTFNILSIEKSQMKRILKLPEDLLPFLLESLEEDGDLVFEHNGKPYSRQWFFNQLTDFLNEKNEQQLTAQLLREQFILKQKENGKTMTELSRLLGLKTPITLERYYRLEHHHHHH” the “soluble on expression in E. coli” value was “not soluble”.
In the case of “MGSDKIHHHHHHMWLKAKKDAEAGAVSFSNQNGKFAEVSSVNTEEFSFRIYQVFGGGHVELSYDTVTTAVSVIYWFTASDVLETGITVVHTKPDNAAPELPGSYHFRPPFGWMNDPNGFGRFEGRPHLFYQHYSHGLRWNTMHWGHAVSSDYLRWRHLPIFLFPSEDLTTRPDKRGGAYSGSTIPLVEGSGIRVFFTEQVQDRIPEQQIQLTATSSDLIMAGQADVILAHRPDGQGLTPDFRDPYVFRGPDGLWKMLLGSQSDGGGVILLYETLDPTAASGWTYVGKLWVETRYKTTAIECPCLLPLDGPANARSTRWVLIYGLMHSEDPETGRKNLTMADVGWFDGKVFTKEFGQELDFGTDNYAFQAFLDGDSIIGIGWLANWADANPEIDFPTSMTLPRRIHYANGELLTPPIGAAESLRSHILDRTRLAAGERVTFINGAVEILIELASSDAAFELALDHPTVTLGLVSDETGLWIRHEDGRDGASPHYIAKGARASRIRIFLDYGSIEVFANRGRYVGTKRIEGFEPVRSALLRADPGAVVHATSWALKP”, the “soluble on expression in E. coli” value is reported as “not soluble”.
For “MNIHEYQGKAVLRSYGVSVPNGKVAFTVEEAVEAAKELGTDVCVVKAQIHAGGRGKAGGVKVAKNLDEVRTYAESILGTTLVTHQTGPEGKEVKRLLIEEGCDIKKEYYVGLVLDRATSQVVLMASEEGGTEIEEVAEKTPEKIFKEYIDPAVGLQGFQARRIAFNINIPKELVGQAVKFMMGLYRAFIEKDCSIAEINPLVTTGDGKVMALDAKLNFDSNALYRHKDILELRDLDEEDAKEIEASKYDLNYIPLDGNIGCMVNGAGLAMATMDIIKHYHGDPANFLDVGGGATAEKVTEAFKIILSDKNVKGIFVNIFGGIMKCDVIAEGVIEATKQVGLELPLVVRLEGTNVELGKKILNESGLNIVAAESMTDGAQKIVSLVG”, the “soluble on expression in E. coli” value was “not soluble”.
In the case of “MQYIKIHALDNVAVALADLAEGTEVSVDNQTVTLRQDVARGHKFALTDIAKGANVIKYGLPIGYALADIAAGEHVHAHNTRTNLSDLDQYRYQPDFQDLPAQAADREVQIYRRANGDVGVRNELWILPTVGCVNGIARQIQNRFLKETNNAEGTDGVFLFSHTYGCSQLGDDHINTRTMLQNMVRHPNAGAVLVIGLGCENNQVAAFRETLGDIDPERVHFMICQQQDDEIEAGIAHLHQLYSVMRNDKREPGKLSELKFGLECGGSDGLSGITANPMLGRFSDYVIANGGTTVLTEVPEMFGAEQLLMDHCRDEATFEKLVTMVNDFKQYFIAHDQPIYENPSPGNKAGGITTLEDKSLGCTQKAGSSVVVDVLRYGERLKTPGLNLLSAPGNDAVATSALAGAGCHMVLFSTGRGTPYGGFVPTVKIATNSELAAKKKHWIDFDAGQLIHGKAMPQLLEEFIDTIVEFANGKQTCNERNDFRELAIFKSGVTL”, the “soluble on expression in E. coli” value is reported as “not soluble”.
For “MGSDKIHHHHHHMFLSIGTLPEDSRFHDAMVYFDMAHLSGTDRSQMLLLPEVVDDYVGPDNPVRFIEAFIDGLDLQASGFIRVEPKLTSRPGYDPADLLKLYLYGYLNRVRSSRRLEAETHRNIEVIWLLRRLTPDHKTIANFRRVNHAAFRQVFREFVILCRQLDLFGRELLAVDGTRIKAVNNKERNFTRAALTKFIREADERLTEYMKRLDNGDAQEENTGGGGPRAKNLAEKITAIKGKRDRHKALLDELDRTGEDQISLTDMDSRAMARMTKVGVGYNIQLAVDVKHKLIAEQEVSNQVVDMGLLTQATQAAMDNLGVEQIEVVADRGYFKVEDIEACEKAGITAYVPKPLRGAAVREGFFSKDEFRYNAEKDVYVCPAGEHLSPRYEKKTRDLKLVEYCNREACRSCDLKAHCTHGYRRVGRVENEAVLDRMAARLAARPEVLDQRRETVEHPFGTIKQWMYQGSFLMRRLENVQGEFSLTALAYNIRRAITLVGVAGLIGAVRA”, the “soluble on expression in E. coli” value was “not soluble”.
In the case of “MIKIKENRMSQSNVIIVHGAYGHPFENWFNWMKTELESLGIECFVPQLPTPDGQELKNWLHVFNSTVSPMITHDTILIGHSLGSAFLLRWLEQANQSVFSTILAGSFIGTVGIQKFDKINESFFENGFDWHSIINKSKQFFCYHGSNDPYISRSNFNFIANNLQARKIIISQGGHLNEAAGFSSFPQLLIQLKSLLGINYGKFI”, the “soluble on expression in E. coli” value is reported as “not soluble”.
In the case of “NDAFRWKTQFNFSTNKNKIIKLHPDLKTFVYGDESFSSSYSMRLVEGGSFGDIYGKAFERDENGKVAFTTDKDGDKIPNVIGGGNTEKVGNCNPDFMLGWSNTFTYKGFSLYFLIDGRFGGDVLSQTQAELDQRGVSLNSGKARDAGYINIDGTQVKPRKFYTAVSGRDGCTEYYMYDATNIRLRELSLGYSLPQSWLAKAGGAFKDVQLSFVARNLFFISKKAPFDPDAVLSTGNDNQGIDVFGMPTTRSLGFNIKFTF”, the “soluble on expression in E. coli” value is reported as “not soluble”.
In the case of “MKKYYVRCKDSKGENASLVIEALSPEHAKEQAYEVYEVGDIYNVSLGEGKSKNCLDRKYSPYIKNDNGKAITIFSLEHHHHHH”, the “soluble on expression in E. coli” value is reported as “not soluble”.
In the case of “AIAWNKKNEEKEDFGIIVILWKQVTVKEDGKVPLEPFLTAAKEVLRVVDAFGSGFRIVKNDIAGNIKKLYRANQTVHAETLQELIIAENSPDGLATVALLWLKRAFQFIASFLRRLVVTDKSLEQCVTEAYNCTLRPCHSAVIQKVFWGGVKLAPSRERFYRKLHPDLNIAKAKIEEFLIELHDPLCCIVQFFFQRELEDQCWGDEVYQRKDSSEWLKVSCEQDSV”, the “soluble on expression in E. coli” value is reported as “soluble”.
In the case of “MSARVRPFLMFQGVQAEAAMNFYLSLFDDAEILQIQRYGAEGPGPEGSVLKALFRLGDQSVHCIDSHVRHAFDFTPAFSFFVDCESNAQIERLAEALSDGGKALMPLGDYGFSQRFAWLADRFGVSWQLNLA”, the “soluble on expression in E. coli” value is reported as “soluble”.
